Paper PMC3210727 (Science (New York, N.Y.), 2011)

Experiments:
Assay in all cases: flow cytometry on cells
[1] = target: surface-expressed H3 HA from A/Hong Kong/1/1968, uncleaved precursor (HA0) (Influenza A virus (strain A/Hong …, UniProt Q91MA7))
[2] = target: surface-expressed H3 HA from A/Hong Kong/1/1968, cleaved (HA) (Influenza A virus (strain A/Hong …, UniProt Q91MA7))
[3] = target: surface-expressed H3 HA from A/Hong Kong/24/1985, cleaved (HA) (Influenza A virus A/Hong Kong/24/1985 …, UniProt Q38TK5, strain)
[4] = target: surface-expressed H7 HA, uncleaved (HA0) (Influenza A virus H7, strain not named; …, UniProt Q6VMK1)
[5] = target: surface-expressed H7 HA, cleaved (HA) (Influenza A virus H7, strain not named; …, UniProt Q6VMK1)

Measured: binding result

B1: human monoclonal antibody CR8020 (antibody, V domains shown)
VH: QVQLQQSGAEVKTPGASVKVSCKASGYTFTSFGVSWIRQAPGQGLEWIGWISAYNGDTYYAQKFQARVTMTTDTSTTTAYMEMRSLRSDDTAVYYCAREPPLFYSSWSLDNWGQGTLVTVSS
VL: EIVMTQSPGTLSLSPGERATLSCRASQSVSMNYLAWFQQKPGQAPRLLIYGASRRATGIPDRISGSGSGTDFTLTISRLEPADFAVYYCQQYGTSPRTFGQGAKVEIK
binds: all assays above
